Results as given in US9415012B2, “Sustained-release composition containing peptides as active ingredient” (IPSEN PHARMA S.A.S., priority 2011, dated 2016).

Experiment: IE-HPLC analysis of rhGH deamidation before/after spray-drying
Format: physicochemical
Details: 130° C.
Protocol: Recombinant human growth hormone in sodium carbonate buffer was dissolved in water. Sodium hyaluronate was present in the composition at a concentration of 2 mg/mL and rhGH at a concentration of 1 mg/mL. The weight ratio protein/sodium hyaluronate was equal to 0.5.
The composition was then spray dried with an inlet temperature of 130° C.
An ion-exchange high performance liquid chromatography (IE-HPLC) analysis was performed to evaluate the […] of rhGH and a size-exclusion chromatography high performance liquid chromatography (SEC-HPLC) analysis was performed to evaluate the aggregation of this protein.

rhGH: recombinant human growth hormone
Stability in the spray-drying process: degraded
